Marks after values point to notes of the source that are not given here.

One test relates to human Wa rotavirus. The note with it: cited from earlier work.
For test [1], the system named is human rotavirus strain Wa. Nature of the test: Rotavirus infection assay in HT29 cells (crystal violet, % uninfected cells). Type of test: cell-based. The procedure: The HT29 cell line was used to propagate the human rotavirus strain Wa (neuraminidase resistant) in the presence of 1 μg/ml trypsin in Dulbecco's minimal essential medium (DMEM) supplemented with 10% foetal calf serum and penicillin/streptomycin (100 μg/ml/100 units/ml). Rotavirus was harvested by freeze thawing twice, spun at 750 g to remove cell debris and stored at −80° C. The rotavirus was assayed and found to contain […] plaque forming units (pfu)/ml.
The infection assay used was based on a number of published assays (Scott et al 1979; Smith et al 1979; Guarino et al 1996; Superb et al 2001). Confluent HT29 cells grown in DMEM (seeded at 3×10^5/ml in 96 well plates) were washed twice in sterile PBS. Doubling dilutions of each of the products to be screened (initial concentration 5 mg/ml) were made in the plate in 50 μl volumes of DMEM. Virus was added (10^4 pfu/well) to all wells except the cells only control and plates were then incubated for two hours in 5% CO2 at 37° C. Other controls included virus plus cells, lipids only, pure GM3 and pure GD3. Following the two-hour incubation trypsin was added to all the wells containing virus at a concentration of 2 μg/ml—this step cleaves VP4 to polypeptides VP8 and VP5 and is needed for the virion to penetrate into the cells' interior. Plates were incubated at 37° C. in 5% CO2 for seven days and were checked daily for cytopathic effect in the virus only control wells. Media was removed and plates washed in sterile PBS, air-dried and fixed with methanol for one minute. Plates were air dried and then stained with 100 μl/well of 1% crystal violet (351884W, BDH, England) for five minutes. Plates were washed four times with sterile water to remove excess stain. 100 μl of acetic acid per well was added to solubilise the stain and absorbance was read at a wavelength of 595 nm in a Biorad ELISA plate reader. Each sample was assayed on a minimum of three separate occasions and the percentage of uninfected cells calculated.
Statistical analysis was performed using an unpaired Student t test (InStat for MacIntosh) to compare the effect of the lipid products derived from bovine milk with the virus only control at the lowest dilution of the product.

B1: bovine MUC1 mucin: bovine milk mucin, cited from Kvistgaard et al, 2004 (protein, UniProt Q8WML4 23-580, looked up)
Mucin-1: NVPTLTTSDSINPRRTTPVSTTQSSPTSSPTKETSWSTTTTLLTASSPAPSPAASPGHDGASTPTSSPAPSPAASPGHDGASTPTSSPAPSPAASPGHDGASTPTSSPAPSPAASPGHDGASTPTSSPAPSPAASPGHNGTSSPTGSPAPSPAASPGHDGASTPTSSPAPSPAASPGHNGTSSPTGSPAPSPAASPGHDGASTPTSSPAPSPAASPGHNGTSSPTGSPAPSPTASPGHDSAPSLTSSPAPSPTASPGQHGASSPTSSDTSSMTTRSMSSSMVTSAHKGTSSRATMTPVSKGTPSSVPSSETAPTAASHITRTAASSPSIALSTSSNPKTSQQLSVRVSLYFLSFRITNLQFNSSLENPQTSYYQELQRSIWGLILQIYKQRDFLGLSEIKFRPGSVVVELTLAFREGTTAEWVKAQFSQLEAHAASYNLTISGVSVYSAPFPSSAQAGSGVPGWGIALLVLVCVLVALAIIYLIALVVCQCGRKKCEQLDVFPTLDAYHPMSEYSTYHTHGRYVPPGSTKRSPYEEVSAGNGGSNLSYTNLAATSANL
Consider B1, for which the “prevention of human Wa rotavirus infection in vitro” value (from here on “prevention”) in the test on human Wa rotavirus is “could not prevent”.

B2: bovine lactoferrin: bovine milk protein, result cited from Kvistgaard et al, 2004 (protein, UniProt P24627 20-708, looked up)
Lactotransferrin: APRKNVRWCTISQPEWFKCRRWQWRMKKLGAPSITCVRRAFALECIRAIAEKKADAVTLDGGMVFEAGRDPYKLRPVAAEIYGTKESPQTHYYAVAVVKKGSNFQLDQLQGRKSCHTGLGRSAGWIIPMGILRPYLSWTESLEPLQGAVAKFFSASCVPCIDRQAYPNLCQLCKGEGENQCACSSREPYFGYSGAFKCLQDGAGDVAFVKETTVFENLPEKADRDQYELLCLNNSRAPVDAFKECHLAQVPSHAVVARSVDGKEDLIWKLLSKAQEKFGKNKSRSFQLFGSPPGQRDLLFKDSALGFLRIPSKVDSALYLGSRYLTTLKNLRETAEEVKARYTRVVWCAVGPEEQKKCQQWSQQSGQNVTCATASTTDDCIVLVLKGEADALNLDGGYIYTAGKCGLVPVLAENRKSSKHSSLDCVLRPTEGYLAVAVVKKANEGLTWNSLKDKKSCHTAVDRTAGWNIPMGLIVNQTGSCAFDEFFSQSCAPGADPKSRLCALCAGDDQGLDKCVPNSKEKYYGYTGAFRCLAEDVGDVAFVKNDTVWENTNGESTADWAKNLNREDFRLLCLDGTRKPVTEAQSCHLAVAPNHAVVSRSDRAAHVKQVLLHQQALFGKNGKNCPDKFCLFKSETKNLLFNDNTECLAKLGGRPTYEEYLGTEYVTAIANLKKCSTSPLLEACAFLTR
In the case of B2, the “prevention” value in the test with human Wa rotavirus was “could not prevent”.

B3: Lactoferrin: lactoferrin provided by Fonterra Co-operative Group Limited; comparative material (protein, UniProt P24627 20-708, looked up)
Lactotransferrin: APRKNVRWCTISQPEWFKCRRWQWRMKKLGAPSITCVRRAFALECIRAIAEKKADAVTLDGGMVFEAGRDPYKLRPVAAEIYGTKESPQTHYYAVAVVKKGSNFQLDQLQGRKSCHTGLGRSAGWIIPMGILRPYLSWTESLEPLQGAVAKFFSASCVPCIDRQAYPNLCQLCKGEGENQCACSSREPYFGYSGAFKCLQDGAGDVAFVKETTVFENLPEKADRDQYELLCLNNSRAPVDAFKECHLAQVPSHAVVARSVDGKEDLIWKLLSKAQEKFGKNKSRSFQLFGSPPGQRDLLFKDSALGFLRIPSKVDSALYLGSRYLTTLKNLRETAEEVKARYTRVVWCAVGPEEQKKCQQWSQQSGQNVTCATASTTDDCIVLVLKGEADALNLDGGYIYTAGKCGLVPVLAENRKSSKHSSLDCVLRPTEGYLAVAVVKKANEGLTWNSLKDKKSCHTAVDRTAGWNIPMGLIVNQTGSCAFDEFFSQSCAPGADPKSRLCALCAGDDQGLDKCVPNSKEKYYGYTGAFRCLAEDVGDVAFVKNDTVWENTNGESTADWAKNLNREDFRLLCLDGTRKPVTEAQSCHLAVAPNHAVVSRSDRAAHVKQVLLHQQALFGKNGKNCPDKFCLFKSETKNLLFNDNTECLAKLGGRPTYEEYLGTEYVTAIANLKKCSTSPLLEACAFLTR
B3: the “Percentage of HT29 cells uninfected by rotavirus” value in test [1] (0.3125 mg/ml) is given as 60 +/− 8 ** %; in test [1] (0.625 mg/ml), 65 +/− 8 *** %; in test [1] (1.25 mg/ml), 73 +/− 12 *** %; in test [1] (2.5 mg/ml), 87 +/− 4 *** %; in test [1] (5 mg/ml) it was 67 +/− 4 *** %.

B4: bovine lactadherin: bovine milk fat globule membrane glycoprotein, cited from Kvistgaard et al, 2004 (protein, UniProt Q95114 19-427, looked up)
Lactadherin: ASGDFCDSSLCLHGGTCLLNEDRTPPFYCLCPEGFTGLLCNETEHGPCFPNPCHNDAECQVTDDSHRGDVFIQYICKCPLGYVGIHCETTCTSPLGMQTGAIADSQISASSMHLGFMGLQRWAPELARLHQTGIVNAWTSGNYDKNPWIQVNLMRKMWVTGVVTQGASRAGSAEYLKTFKVAYSTDGRQFQFIQVAGRSGDKIFIGNVNNSGLKINLFDTPLETQYVRLVPIICHRGCTLRFELLGCELNGCTEPLGLKDNTIPNKQITASSYYKTWGLSAFSWFPYYARLDNQGKFNAWTAQTNSASEWLQIDLGSQKRVTGIITQGARDFGHIQYVAAYRVAYGDDGVTWTEYKDPGASESKIFPGNMDNNSHKKNIFETPFQARFVRIQPVAWHNRITLRVELLGC
As for B4, the “prevention” value in the test with human Wa rotavirus is listed as “could not prevent”.

Source of the values: patent US20110300229A1, “TREATING OR PREVENTING ROTAVIRUS INFECTION” (FONTERRA CO-OPERATIVE GROUP LIMITED, priority 2007, published 2011).
